{"source": "paper PMC12313933", "about": "(Nature Communications, 2025)", "proteins": {"B1": {"name": "MIF(Y100H) variant (enzyme, human)", "chain": "MPMFIVNTNVPRASVPDGFLSELTQQLAQATGKPPQYIAVHVVPDQLMAFGGSSEPCALCSLHSIGKIGGAQNRSYSKLLCGLLAERLRISPDRVYINYHDMNAANVGWNNSTFA"}, "B2": {"name": "MIF(S61H/Y100H) variant (enzyme, human)", "chain": "B1 chain with S61H"}}, "key": {"[1]": {"biological_target": "the molecule itself", "test": "dynamic light scattering"}, "[2]": {"biological_target": "the molecule itself", "test": "crystal structure"}}, "note": "Residue numbers refer to the chain shown, from its start. Names may count otherwise."}
{"protein": "B1", "values": [{"measurement": "stoichiometry N", "setting": "[1]", "result": 3}]}
{"protein": "B2", "values": [{"measurement": "binding result", "setting": "[2]", "result": "binds"}]}
